Reference: patent publication US20240002540A1

Tests used:
[1] = biological target: FcγRI recombinant protein, His-tagged (UniProt P12314); experiment: SPR (Biacore), His-tagged receptor captured by anti-His antibody on CM5 chip, antibody as analyte
[2] = biological target: human CD3 on T cells (Jurkat cells; human peripheral blood CD4+ and CD8+ T-cells) (human) (UniProt P07766); experiment: flow cytometry on Jurkat cells

FcγRI recombinant protein, His-tagged, sequence (P12314 16-288 limits assumed): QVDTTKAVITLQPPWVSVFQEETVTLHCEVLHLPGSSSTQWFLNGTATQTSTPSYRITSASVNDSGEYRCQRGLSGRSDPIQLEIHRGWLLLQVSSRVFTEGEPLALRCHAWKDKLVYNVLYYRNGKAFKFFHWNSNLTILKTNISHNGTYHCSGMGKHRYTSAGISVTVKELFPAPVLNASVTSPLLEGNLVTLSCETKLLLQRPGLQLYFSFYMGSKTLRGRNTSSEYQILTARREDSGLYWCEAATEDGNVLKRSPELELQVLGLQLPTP

| Kd [1] [nM] | affinity, FACS (Jurkat) [2] [nM] | Substance |
| --- | --- | --- |
| 14 | – | IgG4 isotype control (antibody) |
| – | 0.27 | OKT3-hIgG1 (antibody) |
